# Data: the RNAGym collection of RNA variant scans (doi:10.1073/pnas.2313332121)
# B1: TPR t1 (parent)
# chain: GACCAAUCUGCCCUCAGAGCUCGAGAACAUCUUCGGAUGCAGAGGAGGCAGGCUUCGGUGGCGCGAUAGCGCCAACGUCCUCAACCUCCAAUGCAUCCCACCACAUGAUGAUGCCUGAAGAGCCUUGGUUUUUUG
# Variants of: B1
# Assay: polymerase ribozyme fitness, log enrichment relative to wild type (log ratio); higher = more active; in vitro selection for triplet polymerase activity
# Method in brief: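 To select mutant libraries of each subunit of a heterodimeric triplet polymerase ribozyme, built by PCR and transcribed, each was annealed with a biotinylated primer, partner subunit and triplets, then incubated frozen at −7 °C. Extended constructs were gel-excised, captured on streptavidin beads and amplified by RT-PCR, in one round carried out in triplicate. Illumina sequencing of input and output libraries kept genotypes with ≥10 input reads and ≥1 read per output. Fitness is the base-2 logarithm of genotype enrichment relative to wild-type enrichment, from inverse-variance-weighted replicate averages.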
row,Variant,polymerase ribozyme fitness (log ratio)
1,GACCAAUCUGCCCUCAGAGCUCGAGAACAUCUUCAGAUGCAGAGGAGGCAGGCUUCGGUGGCGCGAUAGCGCCAACUUCCUCAACCUCCAAUGCAUCCCACCACAUGAUGAUGCCUGAAGAGCCUUGGUUUUUUG [G35A G77U],-3.89
2,GACCAAUCUGCCUUCAGAGCUCGAGAACAUCUUCGGAUGCAGAGGAGGCAGGCUUCGGUGGCGCGAUAGCACCAACGGCCUCAACCACCAAUGCAUCCCACCACAUGAUGAUGCCUGAAGAGCCUUGGUUAUUUG [C13U G71A U78G U87A U131A],-1.51
3,GACCAAUCUGCCCUCAGAGCUCGAGUACAUCUUCGGAUGCAGUGUAGGCAGGCUUCGGUGGCCCGAUAGCGCCAACGUCCUCAACCUCUAAUGCAUCCCACCACAUGAUGAUGCCUGAAAAGCCUUGGUUUUUUG [A26U A43U G45U G63C C89U G120A],-6.22
4,GACCAAUCUGCCCUCAGAGUUCGAGAACAUCUUCGGAUGCAGAGGAGGCAGGCUGCGGUGGCGCGAUAUCGCCAACGUCCUCAACCUCCAAUGCAUCCAACCACAUGAUGAUGCCUGAAGAGCCUUGGUUUUUUG [C20U U55G G69U C99A],-3.12
5,GACCUAUCUGCCCGCAGAGCUCGAGAACAUCUUCGGAUGCAGAGGAGGCAGGCUUCGGUGGCGCGAUAGCGCCAACGUCCUCCACCUCCAAUGCAUCCCACCACAUGAUGCUGCCUGAAGAGCCUUGGUUUUUUG [A5U U14G A83C A111C],-2.47
6,GACCAAUCUGCCCUCAGAGCUCGAGAACAUCUUCGGAUGCAGAGGAGGCAAGCUUCGGUGGCGCGAUAGCGCCAACGUCCUCAACCUCCAAUGCAUCCCACCACAUGAUGAUGCGUGAAGAGCCUUGGUUUUUUG [G51A C115G],-4.23
7,GGCCAAUCGGCCCUCAGAGCUCGAGAACAUCUUCGGAUGCAGAGGAGGCAGGCUUUGGUGGCGCGAUAGCGCCAACGUCCUCAACCUACAAUGCAUCCCACCACAUGAUGAUGCCUGAAGAGCCUUGGUUUUUUG [A2G U9G C56U C88A],-1.54
8,GACCAAUCUGCCCUCAGAGCUCGAGAACAUCUUCGGAUGCAGAGGAGGCAGGCUUCGGUAGCGCGAUAGCGCCAACGUCCUCAACCUCCAAUGCAUUCCACCACAUGAUGAUGCCUGAACAGCCUUGGUUUUUUG [G60A C97U G120C],0.712
9,GACCAAUCUGCCCUCAGAGCUCGAGAACAUCUUCGGAUGCAUAGGAGGCAGGCUGCGGUGGCGCGAUAGCGCCAACGUCCUCAACCUCCAAUGCAUCCCACCACAUGAUGAUGCCUGAAGAGCCAUGGUUUUUUG [G42U U55G U125A],-1.45
10,GACCAAUCUGCCCUCAGAGCUCGAGAACAUCUUCGGAUGCAGAGGAGGCAGGCUUCGGUGGCGCGAUAGCGCCAACGUCCUCAACCUCCAAUGCAUCCCACGACAUGAUGAUGCCUGAAGAGCCUUGGUUUUUUG [C102G],-5.93
11,GACCAAUCUGCCCUCAGAGCUCGAGAACAUCUUCGGAUGCAGAGGAGGCAGGCUUCGGUGGCACGAUAGCGCCAACUUUCUCAACCUCCAAUGCAUCCCCCCACAUGAUGAUGCCUGAAGAGCCUUGGUUUUUUG [G63A G77U C79U A100C],-2.62
12,GACCAAUCUGCCCUCAGUGCUCGAGAACAUCUUCGGAUGCAGAGGAGGCAGGCUUCGGUGGCGCGAUAGCGCCAACGUCCUCAACCUCCAAUCUAUCCCACCACAUGAUGAUGCCUGAAGAGCCUUGGUUUUUUG [A18U G93C C94U],-3.75
13,GACCAAUCUGCCCUCAGAGCUCGAGAACAUCUUCGGAUGCAGAGGAGGCAGGCUUCGGUGGAGCGAUAGCGCCAACGUCCUCAACCUCCAAUGCAUCCCACCACAUGAUGAUGCCUGAAGAGACUUGGUUUUUUG [C62A C123A],-0.607
14,GACCAAUCUGCCCUCAGAGCUCGAGAACAUCUUCGGAUGCAGAGGAGGCAGGCGUCGGUGGCGCGAUAGCACCAACGUCCUCAACCUCCAAUGCAUCCCACCACAUGAUGAUGCCUGAAGAGCCUUGGUUUUUUG [U54G G71A],-4.72
15,GACCAAUCUGACAUCAGAGCUCGAGAACAUCUUCGGAUGUAGAGGAGGCAGGCUUCGGUGGCGCGAUAGCGCCAACGUCCUCAACCUCCAAUGCAUCCCACCACAUGAUGAUGCCUGAAGAGCCUUGGUUUUUUG [C11A C13A C40U],-3.65
16,GACCAAUCUGCCCUCAGAGCUCGAGAACAUCUUCGGAUGCAGAGGAGGCAGGCUUCGGUGGCUCGAUAGCGCCAACGUCCUCAACCUCCAAUGCAUCCCAACACAUGAUGAUGCCCGAGUAGCCUUGGUUUUUUG [G63U C101A U116C A119G G120U],-3.85
17,GACCAAUCUGCCCUAAGAGCUCGAGAACAUCUUCGGAUGCAGAGGAGGCAGGCUUCGGUGGCGCGAUAGCGCCAACGUCCUCAACCUCCAGUGCAUCCCACCACAUGAUGAUGCCUGAAGAGACUUGGUUUUUUG [C15A A91G C123A],-2.45
18,GACCAAUCUGCCCUCAGAGCUCGAGAACAUCUUCGGAUGCAGAAGAGGCAGGCUUCGGUGGCGCGAUAGCGCCAACGUCCUCAACCUCCAAUGCAUCCCACCACAUGAUGAUGCCUGAAGAACCUUCGUUUUUUG [G44A G122A G127C],-2.85
19,GACCAAUCUGCCCUCAGAGCUGGAGAAUAUCUUCGGUUGCAGAGGAGACAGGCUUCGGUGGCGCGAUAGCGCCAACGUCCUCAACCUCCAAUGCAUCCCACCACAUGAUCAUGCCUGAAGAGCCUUGGUUUUUUG [C22G C28U A37U G48A G110C],-3.85
20,GACCAAUCUGCCCUCAGAGCUCGAGAACAUCUUCGGAUUCAGAGGAGGCAGGCUUCGGUGGCGCGAUAGCGCCAACGUCCUCAACCUCCAAUGCAUCCCACCACAAGAUGAUGCCUGAAGAGCCUUAGUUUUUUG [G39U U106A G127A],-2.14
21,GACCAAUCUGCCCGCAGAGCUCGAGAACAUCUUCGGCUGCAGAGGAAGCAGGCUUCGGUGGCGCGAUAGCGCCAACGUCCUCAACCUCCAAUGCAUCCCACCACAUGAUUAUGCCUGAAUAGCCUUGGUUUUUUG [U14G A37C G47A G110U G120U],-5.99

row,Variant,polymerase ribozyme fitness (log ratio)
1,GACCAAUCUGCCCUCAGAGCUCGAGAACAUCUUCGGAUGCAGAGGAGGCAGGCUUCGGUGGCGCGAUAGCGCCAACGUCCUCCACCUCCAAUGCAUCCCACCACAUGAUGAUGCCUGAGGAGCCUUGGUUUUUUG [A83C A119G],-0.249
2,GACCAAUCUGCCCUCAGAGCUCGAGAACAUCUUCGGAUGCAGACGAGGCAGGCUUCGGUGGCGCGAUAGCGCCAACGUCCUCAACCUCCAAUGCAUGCCACCACAUGAUGAAGCCUGAAGAGCCUUGGUUUUUUG [G44C C97G U112A],-4.06
3,GACCAAUCUGCCAUUAGAGCUCGAGAACAUCUUCGGAUGCAGAGGAGGCAAGCUUCGGUGGCGCGAUAGCGCCAACGUCCUCAACCUCCAAUGUAUCCCACCACAUGAUGAUGCCUGAAGAGCCUUGGUUUUUUG [C13A C15U G51A C94U],-5.17
4,GACCAAUCUGCCCUCAGAGCUCGAGAACAUCUUCGGAUGCAGAGGAGGCACGCUUCGGUGGCGCGAUAGCGCCAACGUCCUCAACCUCCAAUGCAUCCUACCACAUGAUGAUGCCUGAAGAGCCUUGGUUUUUUG [G51C C99U],-7.54
5,GACCAAUCUUCCCUCAUAGCUCGAGAACAUCUUCGGAUGCAGAGUAGGCAGGCUUCGGUGGCGCGAUAGCGCCAACGUCCUCAACCUCCAAUGCAUCCCACCAUAUGAUGAUGCCUGAAGAGCAUUGGUUUUUUG [G10U G17U G45U C104U C124A],-1.08
6,GACCAAUCUGCCCUCAGAGCUCGAGAACAUCUUCGGAUGCAGAGGAGGCAGGCUUCGGUGGCGCGAUAGCGCCAAUGUCCUCAACCUCCAAUGCAGCCCACCACAUGAUGAUGCCGGAAGAGCCUUGGUUUUUUG [C76U U96G U116G],-3.28
7,GACCAAUCUGCUCUCAGAGCUCGAGAACAUCUUCGGAUGCAGAGGAUGCAGGCUUCGGUGGCGCGAUAGCGCCAACGUCCUCAACCUCCAAUGCAUCCCACCACAUGAUGAUGCCUGAAUAGCCUUGGUUUUUUG [C12U G47U G120U],0.786
8,GACCAAUCUGCCCUCAGAGCUCGAGAACAUCUUCGGCUGCAGAGGAGGCAGGCUUCGGUGGCGCGAUAGUGCCAACGUCCUCAAUCUCCAAUGCAUCUCACCACAUGAUGAUUCCUGAAGAGCCUUGGUUUUAUG [A37C C70U C85U C98U G113U U133A],-5.51
9,GACCUAUCUGCCCACAGAGCUCGAGAACAUCUUCGGAUGCAGAGGAGGCAGGUUUCGGUGGCGCGAUAGCGCCAACGUCCUCAACCUCCAAUGCAUCCCACCACAUGAUGAAGCCUGAAGAGCCUUGGUUUUUUG [A5U U14A C53U U112A],0.0341
10,GACCAAUUUGCCCUCUGAGCUCGAGAACAUCUUCGCAUGCAGAGGAGGCAGUCUUCGGUGGCGCGAUAGCGCCAACGUCCUCAACCUCCAAUGCAUACCACCACAUGAUGAUGCCUGAAGAGCCUUGGUUUUUUG [C8U A16U G36C G52U C97A],-2.9
11,GACCAAUCUGCCCUCAGAGCUCGAGAACAUCUUCGGAUACAGAGGAGGCAGGCUUCGGUGGCGCGAUAGCGCCAACGUCCUCAACCUCCAACGCAUCCCACCACAUGAUGAUGCCUGAAGAGCCUUGGUUUUUUG [G39A U92C],-2.34
12,GACCAAUCUGCCCUCAGAGCUCGAGAACAUCUUCGGAUGCAGAGGAGGCAUGCUUCGGUGGCGCGAUAUCGCCAACGUCCUCAACCGCCAAUGCAUCCCACCACAUGAUGAUGCCUGAAGAGCCUUGGUUUUUUG [G51U G69U U87G],-0.427
13,GACCAAUCUGCCCUCAGAGCUCGAGAACAUCUUCGGAUGCAGAGGAGGCUGGCUUCGGUGGUGCGAUAGCGCCAACGUCCUCAACCUCCAAUGCAUCCCACCACAUGAUGAUGCCUGAAGAGCCUUGGUUUUUUG [A50U C62U],-1.15
14,GACCAAUCUGCCCUCGGAGCUCGAGAACAUCUUCGGAUGCAGAGGAGGCAGGCUUCGGUAGCGCGAUAGCGCCAACGUCCUCAACCUCCAAUGCAUCCCACCACAUGAUGAUGCCUGAACAGCCUUGGUUUUUUG [A16G G60A G120C],-0.306
15,GACCAAUCUGCCCUCAUAGCUCGAGAACAUCUUCGGAUGCAGAGGAGGCAGGCUUCGGUGGCGCGAUAGCGCCAACGUCCUCAACCUCCAAUGCACCCCACCACAUGAUGAUGCCUGAAGAGCCUUGGUUUUUUG [G17U U96C],-3.71
16,GACCAAUCUGCCCUCAGAGCUCGAGAACAUCUUCGGAUGCAGAGGAGGCAGGCUGCGGUGGCGCGAUAGCGCCAACGUCCACAACCUCCAAUGCAUCCCACCACAUGAUGAUGCCUGAUGAGCCUUGGUUUUUUG [U55G U81A A119U],-1.33
17,GACCAAUCUGCCCUCAGAGCUCGAGAACAUCUUCGGAUGCAGAGGAGGCAGGCUUCGGUGGCGCGAUAGCGUCAACGUCCUCAACCUCCAAUGCAUCCCACCACAUGAUGAUGCCUGAAGGGCCUUGGUUUUUUG [C72U A121G],0.744
18,GACCAAUCUGCCCUCAGAGCUCGAGAACAUCUUCGGAUGCAGAGGAGGCAGGCUUCGGUGGCGCGAUAGCGCCAACGUCCUCAACCUCCAAAGCAUCCCACGACAUGAUGAUCCCUGAAGAGCCUUGGUUUUUUG [U92A C102G G113C],-6.86
19,GACCCAUCUGCCCUCAGAGCUCGAGAACAUCUUCGGAUGCAGAGGAGGCAGGCUUCGGUGGCGCGAUAGCGCCAACGUCCUCAACCUCCAAGGCAUCCCACCACAUGAUGAUGCCUGAAGAGCCUUGGUUUUUUG [A5C U92G],-4.05
20,GACCAAUCGGCCCUCAGAGCUCGAGAACAUCUUCGGAUGCAGAGGAGGCAGGCUUCGGUGGCGCGAUAGCGCCAACGUCCUCAACCUCCAAUGCAUCCCACCACAUGAUUAUGCCUGAAGAGCCUUGGUUUUUUG [U9G G110U],-1.36
21,GACCAAUCUGCCCUCAGAGCGCGAGAACAUCUUCGGAUGCAGAGGAGGCAGGCUUCGGUGGCGCGAUAGCUCCAACGUCCUCAACCUCCAAUGCAUCCCACCACAUGAUGAUGCCUGAAGAGCCUUGGUUUUUUG [U21G G71U],-2.37
